Publication PMC6467980

Columns and labels:
[1] = molecular target: JO-4 (Adenovirus serotype 3 (Ad3)) (UniProt P04501); test: SEC-MALS; Superdex 200 Increase 10/300 GL, 1X TBS, 1 mL/min; 100 µL at 2.5-2.8 mg/mL in PBS with 5% glycerol; native (oxidized) or reduced with DTT (1.6 mM, 50 °C 10 min, then a further 1.6 mM)
[2] = molecular target: recombinant human desmoglein 2 (human) (UniProt Q14126)
[3] = molecular target: recombinant human desmoglein 2 (human) (UniProt Q14126); test: SPR; rhDSG2 amine-coupled to a CM5 chip (6000 RU), junction openers flowed; Biacore 3000, 25 °C; 10 mM HEPES, 150 mM NaCl, 0.005% surfactant P20, 2 mM CaCl2 pH 7.4; 15 µl/min; 1:1 Langmuir fit; apparent (avidity)
[4] = molecular target: recombinant human desmoglein 2 (human) (UniProt Q14126); remark: listed apart in the source
[5] = molecular target: JO-4 (Adenovirus serotype 3 (Ad3)) (UniProt P04501); test: SPR; JO-4 or GB7_(V239D) amine-coupled to a CM5 chip (approximately 6000 RU), rhDSG2 flowed (17.4 nM to 0.87 nM, triplicate); Biacore 3000, 25 °C; 10 mM HEPES, 150 mM NaCl, 0.005% surfactant P20, 2 mM CaCl2 pH 7.4; 15 µl/min; 1:1 Langmuir fit; apparent (avidity)
[6] = molecular target: GB7_(V239D) (Adenovirus serotype 3 (Ad3)) (UniProt P04501); test: as above
P04501 = test: SEC-MALS; Superdex 200 Increase 10/300 GL, 1X TBS, 1 mL/min; 100 µL at 2.5-2.8 mg/mL in PBS with 5% glycerol; native (oxidized) or reduced with DTT (1.6 mM, 50 °C 10 min, then a further 1.6 mM)

Q: Which % total as Monomer (M), oxidized [1] does the source give for “JO-4 (from UniProt P04501 127-319) (designed binder)” here?
A: The % total as Monomer (M), oxidized was 4%.

Q: What about the % total as Monomer (M), reduced [1] of the same substance?
A: The % total as Monomer (M), reduced was 3%.

Q: And the % total as Multimer (Multi.), oxidized [1]?
A: The % total as Multimer (Multi.), oxidized was 4%.

Q: What about the % total as Multimer (Multi.), reduced [1] of the same substance?
A: Its % total as Multimer (Multi.), reduced is less than 0.5%.

Q: And the % total as Trimer (T), oxidized [1]?
A: The % total as Trimer (T), oxidized was 2%.

Q: And the % total as Trimer (T), reduced [1]?
A: The % total as Trimer (T), reduced was 2%.

Q: And the % total as Trimer-Dimer (T-D), oxidized [1]?
A: Its % total as Trimer-Dimer (T-D), oxidized is less than 0.5%.

Q: What about the % total as Trimer-Dimer (T-D), reduced [1] of the same substance?
A: Its % total as Trimer-Dimer (T-D), reduced is 1%.

Q: And the stoichiometry N [1]?
A: Its stoichiometry N is 3.

Q: What about the VIA IC50: inhibition of entry of Ad3-GFP reporter virus into HeLa cells (blocks Ad3 virus on DSG2) [2] of the same substance?
A: The VIA IC50: inhibition of entry of Ad3-GFP reporter virus into HeLa cells (blocks Ad3 virus on DSG2) was 0.067 µg/mL.

Q: And the Kd [3]?
A: Its Kd is 11.4 nM.

Q: What about the koff [3] of the same substance?
A: Its koff is 0.00264 s⁻¹.

Q: What about the kon [3] of the same substance?
A: Its kon is 232000 M⁻¹ s⁻¹.

Q: What about the DSG2 shedding (fold over PBS treated at 48 h), ELISA of shed DSG2 [4] of the same substance?
A: The DSG2 shedding (fold over PBS treated at 48 h), ELISA of shed DSG2 was 1.44 fold.

Q: What does the source list for “recombinant human desmoglein 2 (from UniProt Q14126 50-609) (natural protein)”?
A: Kd [5]: 0.58 nM; koff [5]: 0.00046 s⁻¹; kon [5]: 790000 M⁻¹ s⁻¹; Kd [6]: 1.19 nM; koff [6]: 0.00075 s⁻¹; kon [6]: 630000 M⁻¹ s⁻¹

Q: JO-4 was tested. Which % total as Aggregate (Agg.), oxidized (P04501) did it give?
A: Its % total as Aggregate (Agg.), oxidized is 90%.

Q: And the % total as Aggregate (Agg.), reduced (P04501)?
A: Its % total as Aggregate (Agg.), reduced is 94%.
